Laboratory results as given in the supplement of paper PMC7125110.
± gives the standard error. For some of these results: Fewer inactive variants are shown than the library holds.

B1: glmS ribozyme (parent)
chain: AUAAAAGCGCCAGAACUACAGAAAUGUAGUUGACGAGGAGGAGGUUUAUCGAAUUUUCGGCGGAUGCCUCCAAA

How the values were obtained:
Details in all cases: with glucosamine-6-phosphate
glucosamine-6-phosphate [1] = variants of: B1; assay: self-cleavage kobs at 40 uM GlcN6P; higher = faster cleavage; RNA array
Method in brief: (§1)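 Tiles of sequenced MiSeq chips were imaged over ~14 h at 37 °C. On them, barcoded ribozyme variants had been transcribed in situ by E. coli RNA polymerase and were tracked via a hybridised Cy3 probe while glucosamine-6-phosphate (40 μM to 10 mM) in HEPES/KCl/Mg(OAc)2 buffer flowed in. Per-tile medians, normalised to baseline and to non-cleaving reference variants, were fit to one- or two-exponential decays for kobs, and weighted Michaelis–Menten fits gave kcat and KM.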

glucosamine-6-phosphate [2] = variants of: B1; assay: self-cleavage kobs at 160 uM GlcN6P; higher = faster cleavage; RNA array
Method in brief: as §1

glucosamine-6-phosphate [3] = variants of: B1; assay: self-cleavage kobs at 640 uM GlcN6P; higher = faster cleavage; RNA array
Method in brief: as §1

glucosamine-6-phosphate [4] = variants of: B1; assay: kcat; higher = faster cleavage; RNA array
Method in brief: as §1

glucosamine-6-phosphate [5] = variants of: B1; assay: self-cleavage kobs at 2500 uM GlcN6P; higher = faster cleavage; RNA array
Method in brief: as §1

glucosamine-6-phosphate [6] = variants of: B1; assay: self-cleavage kobs at 10000 uM GlcN6P; higher = faster cleavage; RNA array
Method in brief: as §1

glucosamine-6-phosphate [7] = variants of: B1; assay: KM; higher = weaker cofactor use; RNA array
Method in brief: as §1

| Variant | self-cleavage kobs at 40 uM GlcN6P (glucosamine-6-phosphate [1]) [s⁻¹] | self-cleavage kobs at 160 uM GlcN6P (glucosamine-6-phosphate [2]) [s⁻¹] | self-cleavage kobs at 640 uM GlcN6P (glucosamine-6-phosphate [3]) [s⁻¹] | kcat (glucosamine-6-phosphate [4]) [s⁻¹] | self-cleavage kobs at 2500 uM GlcN6P (glucosamine-6-phosphate [5]) [s⁻¹] | self-cleavage kobs at 10000 uM GlcN6P (glucosamine-6-phosphate [6]) [s⁻¹] | KM (glucosamine-6-phosphate [7]) [µM] |
| --- | --- | --- | --- | --- | --- | --- | --- |
| G7A U46G | < 1e-05 | < 1e-05 | < 1e-05 |  |  |  |  |
| C11G G41C C50U | < 1e-05 |  |  |  |  |  |  |
| G32A U65A |  |  | 5.66e-05 ± 1.2e-05 | 0.000307 ± 0.0001 | 0.000104 ± 1.4e-05 | 0.000243 ± 4.4e-05 |  |
| G13U U56A |  | 4.35e-05 ± 1.3e-05 | 0.000124 ± 1.6e-05 | 0.0005 ± 2.3e-05 | 0.000287 ± 3.6e-05 | 0.000422 ± 8.8e-05 | 1880 ± 150 |
| U54G C70A | 8.02e-05 ± 1.4e-05 | 7.71e-05 ± 1.8e-05 | 0.000198 ± 2.9e-05 | 0.000123 ± 2.4e-05 | 0.000143 ± 2.9e-05 | 0.000109 ± 1.6e-05 |  |
| G38U U65G |  |  |  |  |  |  | 107 ± 46 |
| U55C C71A |  |  | 5.32e-05 ± 6.9e-06 | 0.000398 ± 3.4e-05 | 0.000174 ± 1.9e-05 | 0.000283 ± 2.2e-05 | 3820 ± 600 |
| A15U U46G G51U |  |  |  |  |  |  | 56.5 ± 15 |
| C11U C50A C70G | 9.07e-05 ± 2.5e-05 |  | 0.000365 ± 8.8e-05 |  | 0.000173 ± 6e-05 | 5.4e-05 ± 1.6e-05 |  |
| A36C A42U | < 1e-05 |  |  |  |  |  |  |
| A15C G63U | < 1e-05 |  | < 1e-05 |  |  | < 1e-05 |  |
| A15U C34G | < 1e-05 | < 1e-05 | < 1e-05 |  |  | < 1e-05 |  |
| A15U A39G | 0.000203 ± 3.1e-05 | 0.000706 ± 0.00028 | 0.0023 ± 0.00069 | 0.00892 ± 0.0027 |  | 0.00943 ± 0.0017 | 1830 ± 730 |
| G7C G51A | < 1e-05 | < 1e-05 | < 1e-05 |  |  | < 1e-05 |  |
| G26U G40U | 0.000119 ± 2.3e-05 |  | 0.000586 ± 0.00016 | 0.000912 ± 0.00012 | 0.00144 ± 0.00066 | 0.000883 ± 0.00019 | 272 ± 64 |
| G9U C61G | < 1e-05 |  | 4.57e-05 ± 1.2e-05 | 0.000192 ± 1.7e-05 | 9.21e-05 ± 1.7e-05 | 0.00016 ± 2.5e-05 | 2350 ± 460 |
| A42U C67U |  |  | 5.2e-05 ± 6.3e-06 | 0.000151 ± 1.3e-05 | 0.000127 ± 1.2e-05 | 0.000131 ± 8.5e-06 | 1090 ± 300 |
| C16G U30A U65G |  |  |  | 0.000143 ± 7.4e-06 | 5.44e-05 ± 2e-05 | 0.000101 ± 2.1e-05 | 4140 ± 530 |
